Test results as given in US11110182B2, “Multifunctional RNA nanoparticles and methods for treating cancer and therapeutic resistant cancer” (University of Cincinnati, priority 2016, dated 2021).

Tested on: BT474 cells
Assay: In vitro mammosphere culture assay, BT474 cells
Assay type: cell-based, human
Method: FIG. 4A) BT474 cells were treated with pRNA nanoparticles in combination with vehicle or 1 μM 4-hydroxy-tamoxifen (4-OHT) as indicated for 48 h, and assayed for cell viability by MTT assay. FIG. 4B) Cells were treated as above and the migration and FIG. 4C) invasion capabilities were examined. FIG. 4D) Cells were treated as above and assayed for in vitro mammosphere formation. FIG. 4E) The number of mammospheres was counted, and FIG. 4F) the mammosphere size was calculated. Scale bar: 10 μm.
Migration and metastasis assay. The 8-μm-pore-size polycarbonate membrane, which separates the two chambers of a 6.5-mm Transwell (Costar), was coated with or without 1:8 DMEM-diluted Matrigel (Corning). Transwell assay was performed as previously described.^57 Briefly, BT474 cells were treated with pRNAs alone or together with 4-hydroxy-tamoxifen (4-OHT) for 48 h and starved with serum-free DMEM containing 0.2% BSA overnight. On the next day, cells were collected and 2×10^5 cells were seeded to the upper chamber of Transwell. The lower chamber was filled with 600 μL DMEM medium containing 10% FBS. After incubation at 37° C. for 24 h, cells on the membranes were fixed and stained with 0.1% crystal violet in 20% ethanol solution. Cells at top side of membranes were removed completely, and cells at the bottom side were examined with an Olympus SZX12 microscope and counted. • Mammosphere culture and breast cancer stem cell analyses. BT474 cells were treated with pRNAs for 48 h. Then, cells were suspended in DMEM/F12 medium supplemented with 1×B27 (Thermo Fisher), 20 ng/mL bFGF and 20 ng/mL EGF (R&D), and added into 24-well ultralow attachment plates. After treatment with or without 1 μM 4-OHT for 7 days, mammosphere formation was recorded using an Axiovert S100 TV inverted microscope (Zeiss). Xenograft tumor tissues were cut into small pieces and digested with trypsin and collagenase at 37° C. for 1 h, and tumor cells were collected and rinsed with pre-cold PBS. All cells were stained with FITC-conjugated anti-CD44 antibody and PE-conjugated anti-CD24 antibody (BD Pharmingen) in the dark on ice for 30 min. After resuspension with 0.5 mL PBS buffer, CD44^+/CD24^−/low cell population was analyzed by flow cytometry. • Orthotopic xenograft breast tumor mouse model, in vivo imaging and anti-tumor therapy. […] The tumor volume was monitored every 3 days, and tumor size was calculated using the formula: volume=0.5×(width)^2×(length). […] After the tumor weights were recorded, part of the tumor tissues were digested with trypsin and collagenase, lysed for extraction of total proteins and RNAs, or fixed in 10% neutral buffered formalin along with organ tissues, respectively, for further western blot, real-time PCR and IHC studies, etc. […]

[1] = BT474, in combination with tamoxifen (1 μM 4-OHT, 7 days)

B1: pRNA-HER2apt-siMED1: 3-WJ pRNA nanoparticle bearing a HER2-targeting RNA aptamer and two different MED1 siRNAs; strands p1 SEQ ID NO: 3, p2 SEQ ID NO: 4 (nucleic acid)
chain 1: GGACAGUGAAAGUGAGUCAAAGGAUCAAUCAUGGCCAAAGAUGUUACUUUGAGAGCCUU
chain 2: GGCUCUCAAAGUAACAUCUAAGGCCAUGUGUAUGUGGGGGGAGGACGAUGCGGUCUGCUGUGCUUGAUAUGCCCCAGACGACUCGCCCCCCACAUACUUUGUUGAUCCAAUGACUCACUUUCACUGUCCUU
modifications: 2'-F modification; third strand may lack entry; pRNA-HER2apt-siMED1, p1; pRNA-HER2apt-siMED1, p2
greatly reduced: number of mammosphere formation [1] | size of mammospheres [1] | number of mammosphere formation (BT474, nanoparticles alone) | size of mammospheres (BT474, nanoparticles alone)
